Earlier results on one substance are cited in publication PMC6746776.

What is called Kd is the constant that tells how readily two partners part at equilibrium.

For this data set, the target named is p63 TAD TAD (Homo sapiens) (UniProt Q9H3D4).
Chain of p63 TAD TAD (Homo sapiens) (Q9H3D4 1-107): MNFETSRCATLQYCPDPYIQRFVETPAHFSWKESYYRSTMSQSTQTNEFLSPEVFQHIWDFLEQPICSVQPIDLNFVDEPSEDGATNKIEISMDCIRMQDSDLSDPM

Chain of p300 Taz2 (Q09472 1723-1812): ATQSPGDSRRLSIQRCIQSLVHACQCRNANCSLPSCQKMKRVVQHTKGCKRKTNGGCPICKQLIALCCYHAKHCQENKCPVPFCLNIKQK

With p300 Taz2 (from UniProt Q09472), the Kd was 196 nM.
